Test results reported in IntAct's records for PubMed 22922713.

B1: WD repeat-containing protein 19 (Mus musculus), Q3UGF1 (parent)
chain: MKRVFSLLEKSWLGAPIQFAWQKSSGNYLAVTGADYIVKIFDRHGQKRSEISLPGNCVTMDWDKDGDILAVIAEKSSCIYLWDANTNKTSQLDNGMRDQMSFLLWSKIGSFLAVGTIKGNLLIYNHQTSRKIPVLGKHTKKITCGCWNSENLLALGGEDKMITVSNQEGDTIRQTPVKSEPSDIKFSMSKTDERISSAENTISAVVGKKMLFLFHLNEPDNPVDLEFQQAYGNIVCYSWYGDGYIMIGFSRGTFLAISTHFPEVGQEIFKARDHKDNLTSVALSQTLNKAATCGDNCIKIHDLTELRDMYAIINLDDENKGLGTLSWTDDGQLLALSTQRGSLHVFLTKLPILGDACHTRIAYLTSLLEVTVANLIEGEPPITVSVDVEPTFVAVGLYHLAVGMNNRAWFYVLGENVVKKLKDVEYLGTVASICLHSDYAAALFEGKIQLHLIENEMLDAQEERETRLFPAVDDKCRILCHALTSDFLIYGTDTGIIHYFFIEDWQFVNDYRHPVGVKKLFPDPNGTRLVFIDEKSDGFVYCPVNDATYEIPDFSPTIKGVLWENWPMDKGVFIAYDDDKVYTYAFHKDTIQGSKVILAGSTKLPFSHKPLLLYNGELTCQTQSGKINSIYLSTHSFLGSMKDTEPTDLRQMLTQTLLLKRFSDAWDICKMLNDRTSWSELAKACLHHMEVEFAIRVSRTMGDVGTVMSLEQIKGIEDYNLLAGHLAMFTNDFNLAQDLYLASNCPVAALEMRRDLQHWDSALQLAKRLAPDQIPFISKEYAIQLEFTGDYVNALAHYEKGITGDNKEHDEVCLAGVAQMSIRMGDIRRGANQALKHPSRVLKRDCGAILENMKQFSEAAQLYEKGQYYDRAASVYIRCKNWAKVGELLPHVSSPKIHLQYAKAKEADGRYKEAVVAYENAKQWNSVIRIYLDHLNNPEKAVSIVRETQSLDGAKMVARFFLQLGDYGSAIQFLVLSKCNNEAFTLAQQHNKMEIYADIIGAEDTTNEDYQSIALYFEGEKRHFQAGKFFLLCGQYSRALKHFLKCPSSEDNVAIEMAIETVGQAKDELLTNQLIDHLMGESDGMPKDAKYLFRLYMALKQYREAARTAIIIAREEQSAGNYRNAHDVLFSMYAELKAQKIKIPSEMATNLMILHSYILVKIHVKSGDHMKGARMLIRVANNISKFPSHIVPILTSTVIECHRAGLKNSAFSFAAMLMRPEYRNKIDAKYKKKIEAMVRRPDTSETEEATTPCPFCQFLLPECELLCPGCKNNIPYCIATGRHMLKDDWTMCPHCGFPALYSEFKILLNSESTCPMCSERLNSSQLKKITDCSQYLRTEME
partner: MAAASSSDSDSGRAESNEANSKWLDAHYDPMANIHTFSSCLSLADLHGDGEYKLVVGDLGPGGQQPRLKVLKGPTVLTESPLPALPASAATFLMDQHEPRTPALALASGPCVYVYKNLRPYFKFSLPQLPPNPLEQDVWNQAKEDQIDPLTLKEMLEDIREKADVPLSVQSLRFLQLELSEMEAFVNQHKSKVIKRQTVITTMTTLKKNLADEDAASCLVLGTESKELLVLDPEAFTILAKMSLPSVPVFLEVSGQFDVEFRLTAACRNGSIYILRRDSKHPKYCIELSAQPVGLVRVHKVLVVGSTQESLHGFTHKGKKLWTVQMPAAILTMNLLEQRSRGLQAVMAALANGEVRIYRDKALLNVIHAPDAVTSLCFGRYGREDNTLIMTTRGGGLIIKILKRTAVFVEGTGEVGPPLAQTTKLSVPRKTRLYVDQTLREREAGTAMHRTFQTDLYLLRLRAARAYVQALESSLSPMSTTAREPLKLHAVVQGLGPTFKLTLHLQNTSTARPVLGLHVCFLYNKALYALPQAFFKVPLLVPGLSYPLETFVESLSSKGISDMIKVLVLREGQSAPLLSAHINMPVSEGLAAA

Variants of: B1
Settings: with bbs1_mouse Bbs1, Q3V3N7

effect of a mutation on the interaction | Variant
decreasing interaction strength | G341R
